# Assay results as given in US7902330 (ALBERT EINSTEIN COLLEGE OF MEDICINE OF YESHIVA UNIVERSITY, dated 2011).
# Starred links: 1 amine or outer side, 2 acyl side, 3 side chain; linkers in the order of their positions; H or OH if unused. Non-standard residues stand in square brackets, D forms with d. No end group written: not given here. *: point of attachment. 4‑nitrohippuryl = O=C(NCC(=O)*)c1ccc([N+](=O)[O-])cc1; Benzoyl(4-(pyrrol-1-yl)) = O=C(c1ccc(-n2cccc2)cc1)*; 10‑hydroxydecanoyl = O=C(CCCCCCCCCO)*; 2,3‑dihydroxybenzyl = Oc1cccc(C*)c1O; Cysteamide = C(CS[*:3])N[*:1]; Dap = NC[C@H](N)C(=O)O
# T1: protein kinase C ε (UniProt Q02156 1-737, limits assumed)
# T1 sequence (looked up): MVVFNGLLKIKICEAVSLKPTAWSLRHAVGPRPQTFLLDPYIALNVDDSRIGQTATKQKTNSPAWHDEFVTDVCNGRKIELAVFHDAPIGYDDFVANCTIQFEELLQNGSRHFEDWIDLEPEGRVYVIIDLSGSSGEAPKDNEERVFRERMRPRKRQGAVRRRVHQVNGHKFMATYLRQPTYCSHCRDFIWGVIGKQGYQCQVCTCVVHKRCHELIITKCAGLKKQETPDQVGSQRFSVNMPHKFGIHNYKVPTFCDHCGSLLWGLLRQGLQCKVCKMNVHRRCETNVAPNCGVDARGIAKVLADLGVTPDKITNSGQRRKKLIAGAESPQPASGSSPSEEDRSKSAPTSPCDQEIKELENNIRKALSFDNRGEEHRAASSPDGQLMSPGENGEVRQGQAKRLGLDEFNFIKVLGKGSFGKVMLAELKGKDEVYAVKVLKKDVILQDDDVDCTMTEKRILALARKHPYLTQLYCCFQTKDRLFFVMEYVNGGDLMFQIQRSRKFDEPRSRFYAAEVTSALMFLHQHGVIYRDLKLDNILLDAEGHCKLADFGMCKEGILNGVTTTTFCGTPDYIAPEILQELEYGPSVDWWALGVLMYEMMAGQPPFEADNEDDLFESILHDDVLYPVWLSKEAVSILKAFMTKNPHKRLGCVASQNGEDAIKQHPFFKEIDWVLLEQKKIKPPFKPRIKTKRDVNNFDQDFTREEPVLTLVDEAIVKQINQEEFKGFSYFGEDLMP
# T2: protein kinase C τ (atypical; ι in the tables) (UniProt P41743 1-596)
# T2 sequence (looked up): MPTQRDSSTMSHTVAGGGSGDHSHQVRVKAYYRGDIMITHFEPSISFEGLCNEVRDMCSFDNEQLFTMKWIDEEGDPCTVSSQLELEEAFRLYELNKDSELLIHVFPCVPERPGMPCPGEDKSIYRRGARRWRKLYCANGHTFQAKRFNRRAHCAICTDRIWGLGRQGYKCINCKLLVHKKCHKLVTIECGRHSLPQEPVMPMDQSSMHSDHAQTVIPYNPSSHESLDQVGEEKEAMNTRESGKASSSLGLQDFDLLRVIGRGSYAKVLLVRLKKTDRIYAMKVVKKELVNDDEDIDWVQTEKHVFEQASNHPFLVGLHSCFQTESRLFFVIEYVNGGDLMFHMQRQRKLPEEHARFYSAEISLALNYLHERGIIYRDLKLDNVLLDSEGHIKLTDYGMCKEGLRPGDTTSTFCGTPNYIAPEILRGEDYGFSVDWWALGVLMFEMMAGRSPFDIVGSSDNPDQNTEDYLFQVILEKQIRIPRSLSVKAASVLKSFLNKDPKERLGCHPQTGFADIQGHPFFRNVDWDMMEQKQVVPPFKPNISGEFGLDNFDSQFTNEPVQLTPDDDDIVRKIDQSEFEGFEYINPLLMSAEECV
# T3: protein kinase C ζ (UniProt Q05513 1-592, limits assumed)
# T3 sequence (looked up): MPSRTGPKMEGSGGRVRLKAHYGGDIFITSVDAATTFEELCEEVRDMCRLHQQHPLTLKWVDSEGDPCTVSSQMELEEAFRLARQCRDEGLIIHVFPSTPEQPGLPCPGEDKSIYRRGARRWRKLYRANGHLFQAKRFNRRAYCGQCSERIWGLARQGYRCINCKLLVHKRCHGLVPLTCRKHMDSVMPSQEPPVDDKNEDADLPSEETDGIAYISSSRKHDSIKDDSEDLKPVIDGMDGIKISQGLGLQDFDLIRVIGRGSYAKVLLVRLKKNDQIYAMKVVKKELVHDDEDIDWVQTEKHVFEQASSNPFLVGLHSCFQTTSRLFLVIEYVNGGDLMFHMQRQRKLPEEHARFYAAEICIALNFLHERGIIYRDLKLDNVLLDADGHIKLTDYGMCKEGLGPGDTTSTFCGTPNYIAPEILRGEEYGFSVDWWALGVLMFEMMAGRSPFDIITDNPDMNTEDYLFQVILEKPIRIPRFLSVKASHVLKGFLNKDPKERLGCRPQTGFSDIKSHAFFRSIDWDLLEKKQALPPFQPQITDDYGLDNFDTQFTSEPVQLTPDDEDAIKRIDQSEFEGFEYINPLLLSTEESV
# B1: compound 6 (primary lead from library IV) (peptide)
# peptide: ARRGALR[Dap](Benzoyl(4-(pyrrol-1-yl)))A-Cysteamide
# modifications: also: further groups not given here
# notes: also called peptide 6; Compound H
# B2: Compound E (nonacylated free amine) (peptide)
# peptide: H-RRQG[Dap]FMYF-Cysteamide
# modifications: not fully specified (residue 5)
# B3: compound 4 (diacetylated control peptide) (peptide)
# peptide: Ac-ARRGALR[Dap](Ac)A-NH2
# notes: also called peptide 4; starting parent peptide 4
# B4: Compound C (peptide)
# peptide: Ac-RRQG[Dap](4‑nitrohippuryl)FMYF-Cysteamide
# SMILES: CSCC[C@H](NC(=O)[C@H](Cc1ccccc1)NC(=O)[C@H](CNC(=O)CNC(=O)c1ccc([N+](=O)[O-])cc1)NC(=O)CNC(=O)[C@H](CCC(N)=O)NC(=O)[C@H](CCCNC(=N)N)NC(=O)[C@H](CCCNC(=N)N)NC(C)=O)C(=O)N[C@@H](Cc1ccc(O)cc1)C(=O)N[C@@H](Cc1ccccc1)C(=O)NCCS
# B5: Compound F (peptide)
# peptide: {2,3‑dihydroxybenzyl}-RRQG[Dap](4‑nitrohippuryl)FMYF-Cysteamide
# B6: compound 3 (lead from library III) (peptide)
# peptide: Ac-ARRGALR[Dap](Benzoyl(4-(pyrrol-1-yl)))A-Cysteamide
# notes: also called peptide 3
# B7: Compound A (diacetylated consensus derivative) (peptide)
# peptide: Ac-RRQG[Dap](Ac)FMYF-Cysteamide
# B8: Compound B (peptide)
# peptide: Ac-RRQG[Dap](10‑hydroxydecanoyl)FMYF-Cysteamide
# Experiments:
# protein kinase C γ [1] = target: T4, protein kinase C γ (UniProt P05129 1-697, limits assumed); test: cell-based or functional assay
# protein kinase C ε [2] = target: T1, protein kinase C ε; test: cell-based or functional assay
# protein kinase C η [3] = target: T5, protein kinase C η (UniProt P24723 1-683, limits assumed); test: cell-based or functional assay
# T5 sequence (P24723 whole entry): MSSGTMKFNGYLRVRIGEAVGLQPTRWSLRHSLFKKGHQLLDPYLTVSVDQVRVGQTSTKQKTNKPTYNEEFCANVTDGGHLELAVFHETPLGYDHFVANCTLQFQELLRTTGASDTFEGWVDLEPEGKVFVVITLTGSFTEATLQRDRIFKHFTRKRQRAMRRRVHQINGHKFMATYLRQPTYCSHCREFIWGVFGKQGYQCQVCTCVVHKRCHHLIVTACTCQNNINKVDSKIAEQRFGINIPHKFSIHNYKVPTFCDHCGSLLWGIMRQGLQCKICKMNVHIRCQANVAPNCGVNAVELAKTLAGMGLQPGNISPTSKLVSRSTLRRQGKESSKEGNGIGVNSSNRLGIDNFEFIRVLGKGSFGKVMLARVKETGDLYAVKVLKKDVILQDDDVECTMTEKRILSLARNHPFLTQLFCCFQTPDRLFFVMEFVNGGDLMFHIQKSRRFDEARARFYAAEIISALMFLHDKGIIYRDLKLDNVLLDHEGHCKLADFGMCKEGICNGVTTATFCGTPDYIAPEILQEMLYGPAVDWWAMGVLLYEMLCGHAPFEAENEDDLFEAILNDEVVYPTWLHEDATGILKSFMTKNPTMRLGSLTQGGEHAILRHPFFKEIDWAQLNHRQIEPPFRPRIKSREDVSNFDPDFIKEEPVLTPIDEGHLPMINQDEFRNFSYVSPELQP
# protein kinase C θ [4] = target: T6, protein kinase C θ (UniProt Q04759 1-706, limits assumed); test: cell-based or functional assay
# T6 sequence (Q04759 whole entry): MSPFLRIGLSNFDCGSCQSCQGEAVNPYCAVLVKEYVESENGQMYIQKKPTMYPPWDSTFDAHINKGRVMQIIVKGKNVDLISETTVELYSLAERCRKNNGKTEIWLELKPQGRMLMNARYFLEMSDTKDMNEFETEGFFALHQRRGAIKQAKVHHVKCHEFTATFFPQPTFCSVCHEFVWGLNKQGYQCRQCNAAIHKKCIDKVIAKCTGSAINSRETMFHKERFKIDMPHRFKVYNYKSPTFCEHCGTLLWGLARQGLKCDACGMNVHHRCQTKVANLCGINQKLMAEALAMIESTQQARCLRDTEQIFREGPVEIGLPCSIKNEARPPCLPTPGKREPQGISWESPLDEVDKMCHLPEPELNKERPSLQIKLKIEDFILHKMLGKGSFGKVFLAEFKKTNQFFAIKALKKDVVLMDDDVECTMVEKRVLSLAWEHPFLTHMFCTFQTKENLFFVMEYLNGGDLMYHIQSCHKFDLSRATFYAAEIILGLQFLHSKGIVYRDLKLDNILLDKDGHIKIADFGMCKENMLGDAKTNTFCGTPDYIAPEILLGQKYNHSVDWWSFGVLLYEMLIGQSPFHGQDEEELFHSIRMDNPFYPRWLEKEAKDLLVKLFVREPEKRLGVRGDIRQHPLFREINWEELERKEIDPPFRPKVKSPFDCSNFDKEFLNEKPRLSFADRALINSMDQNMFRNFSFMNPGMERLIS
# [5] = target: T2, protein kinase C τ (atypical; printed ι …); test: cell-based or functional assay
# protein kinase C ζ [6] = target: T3, protein kinase C ζ; test: cell-based or functional assay
# protein kinase Cα [7] = target: T7, protein kinase Cα (UniProt P17252 1-672, limits assumed); test: cell-based or functional assay
# protein kinase C βI [8] = target: T8, protein kinase C βI (UniProt P05771-1 1-671, limits assumed); test: cell-based or functional assay
# T8 sequence (P05771 whole entry): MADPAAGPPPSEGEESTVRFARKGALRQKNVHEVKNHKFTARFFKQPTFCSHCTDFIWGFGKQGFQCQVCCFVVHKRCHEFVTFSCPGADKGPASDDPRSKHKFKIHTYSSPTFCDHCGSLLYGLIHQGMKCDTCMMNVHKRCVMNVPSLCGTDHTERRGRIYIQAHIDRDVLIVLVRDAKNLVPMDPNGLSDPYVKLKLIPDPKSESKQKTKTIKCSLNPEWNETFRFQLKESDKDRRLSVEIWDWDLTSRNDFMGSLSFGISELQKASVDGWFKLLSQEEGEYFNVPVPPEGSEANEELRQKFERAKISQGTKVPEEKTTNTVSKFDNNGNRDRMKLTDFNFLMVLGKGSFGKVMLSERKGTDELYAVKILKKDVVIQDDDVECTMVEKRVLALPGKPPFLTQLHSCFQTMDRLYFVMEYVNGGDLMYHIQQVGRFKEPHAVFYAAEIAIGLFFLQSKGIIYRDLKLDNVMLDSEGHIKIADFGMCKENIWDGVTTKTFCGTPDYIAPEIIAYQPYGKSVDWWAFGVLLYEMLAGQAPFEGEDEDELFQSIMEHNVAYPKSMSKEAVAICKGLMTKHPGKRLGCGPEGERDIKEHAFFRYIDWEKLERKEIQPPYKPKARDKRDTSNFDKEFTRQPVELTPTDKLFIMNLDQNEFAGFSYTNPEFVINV
# protein kinase Cα [9] = target: T7, protein kinase Cα; test: cell-based or functional assay; remark: listed apart in the source
# protein kinase Cα [10] = target: T7, protein kinase Cα; test: PKCα 33P kinase assay, Ki obtained by varying the concentration of peptide substrate Ac-Ser-Phe-Arg-Arg-Arg-NH2
# Protocol: Subsequent assay workup and scintillation counting were performed as described under "Protein Kinase C α, β and γ Assay (library screening)".
# The reaction was initiated as described above. […] Following an additional 5 min incubation at ambient temperature, 75 µL from each reaction well was transferred into each well of a Unifilter (P81 cellulose phosphate paper) assay plate and washed four times with 0.1% phosphoric acid in water. […] IC$50$ values were calculated using GraFit (Erithacus Software Limited) and K_i values were calculated using Enzyme Kinetics, SigmaPlot (SPSS Inc.)
# protein kinase C γ [11] = target: T4, protein kinase C γ; test: cell-based or functional assay; remark: listed apart in the source
# protein kinase C ε [12] = target: T1, protein kinase C ε; test: cell-based or functional assay; remark: listed apart in the source
# protein kinase C η [13] = target: T5, protein kinase C η; test: cell-based or functional assay; remark: listed apart in the source
# protein kinase C θ [14] = target: T6, protein kinase C θ; test: cell-based or functional assay; remark: listed apart in the source
# [15] = target: T2, protein kinase C τ (atypical; printed ι …); test: cell-based or functional assay; remark: listed apart in the source
# protein kinase C ζ [16] = target: T3, protein kinase C ζ; test: cell-based or functional assay; remark: listed apart in the source
# protein kinase Cα [17] = target: T7, protein kinase Cα; test: cell-based or functional assay; remark: listed apart in the source
# protein kinase C βI [18] = target: T8, protein kinase C βI; test: cell-based or functional assay; remark: listed apart in the source
# protein kinase C γ [19] = target: T4, protein kinase C γ; test: cell-based or functional assay; remark: listed apart in the source
# protein kinase C ε [20] = target: T1, protein kinase C ε; test: cell-based or functional assay; remark: listed apart in the source
# protein kinase C η [21] = target: T5, protein kinase C η; test: cell-based or functional assay; remark: listed apart in the source
# protein kinase C θ [22] = target: T6, protein kinase C θ; test: cell-based or functional assay; remark: listed apart in the source
# [23] = target: T2, protein kinase C τ (atypical; printed ι …); test: cell-based or functional assay; remark: listed apart in the source
# protein kinase C ζ [24] = target: T3, protein kinase C ζ; test: cell-based or functional assay; remark: listed apart in the source
# protein kinase Cα [25] = target: T7, protein kinase Cα; test: cell-based or functional assay; remark: listed apart in the source
# protein kinase C βI [26] = target: T8, protein kinase C βI; test: cell-based or functional assay; remark: listed apart in the source
binder,measurement,setting,value
B1,selectivity for PKCα versus this isoform,protein kinase C γ [1],580 fold
same,selectivity for PKCα versus this isoform,protein kinase C ε [2],600 fold
same,selectivity for PKCα versus this isoform,protein kinase C η [3],1310 fold
same,selectivity for PKCα versus this isoform,protein kinase C θ [4],1210 fold
same,selectivity for PKCα versus this isoform,[5],940 fold
same,selectivity for PKCα versus this isoform,protein kinase C ζ [6],640 fold
same,IC50 as an inhibitor of histone III-S phosphorylation by PKCα,protein kinase Cα [7],0.0317 µM
same,selectivity for PKCα versus this isoform,protein kinase C βI [8],385 fold
same,"IC50, PKCα-catalysed phosphorylation of peptide substrate (33P assay)",protein kinase Cα [9],0.0019 µM
same,Ki,protein kinase Cα [10],0.0008 µM
B2,"IC50, PKC kinase assay (33P, peptide substrate)",protein kinase C γ [11],4.4 µM
same,Selectivity (IC50 relative to PKC βI = 1),protein kinase C γ [11],550 fold
same,"IC50, PKC kinase assay (33P, peptide substrate)",protein kinase C ε [12],2.3 µM
same,Selectivity (IC50 relative to PKC βI = 1),protein kinase C ε [12],287 fold
same,"IC50, PKC kinase assay (33P, peptide substrate)",protein kinase C η [13],13.2 µM
same,Selectivity (IC50 relative to PKC βI = 1),protein kinase C η [13],1650 fold
same,"IC50, PKC kinase assay (33P, peptide substrate)",protein kinase C θ [14],14.2 µM
same,Selectivity (IC50 relative to PKC βI = 1),protein kinase C θ [14],1780 fold
same,Selectivity (IC50 relative to PKC βI = 1),[15],94 fold
same,"IC50, PKC kinase assay (33P, peptide substrate)",protein kinase C ζ [16],0.022 µM
same,Selectivity (IC50 relative to PKC βI = 1),protein kinase C ζ [16],2.8 fold
same,"IC50, PKC kinase assay (33P, peptide substrate)",protein kinase Cα [17],3.1 µM
same,Selectivity (IC50 relative to PKC βI = 1),protein kinase Cα [17],387 fold
same,"IC50, PKC kinase assay (33P, peptide substrate)",protein kinase C βI [18],0.008 µM
same,Selectivity (IC50 relative to PKC βI = 1),protein kinase C βI [18],1 fold
B3,"IC50, PKCα-catalysed phosphorylation of peptide substrate (33P assay)",protein kinase Cα [9],1100 µM
same,Ki,protein kinase Cα [10],350 µM
B4,"IC50, PKC ζ kinase assay",protein kinase C ζ [6],6.4 µM
B5,"IC50, PKC kinase assay (33P, peptide substrate)",protein kinase C γ [11],9 µM
same,"IC50, PKC kinase assay (33P, peptide substrate)",protein kinase C ε [12],8.8 µM
same,"IC50, PKC kinase assay (33P, peptide substrate)",protein kinase C η [13],12.3 µM
same,"IC50, PKC kinase assay (33P, peptide substrate)",protein kinase C θ [14],13.7 µM
same,"IC50, PKC kinase assay (33P, peptide substrate)",protein kinase C ζ [16],3.6 µM
same,"IC50, PKC kinase assay (33P, peptide substrate)",protein kinase Cα [17],17 µM
same,"IC50, PKC kinase assay (33P, peptide substrate)",protein kinase C βI [18],3.1 µM
same,"Fold selectivity (IC50), PKC δ = 1",protein kinase C γ [19],500 fold
same,"Fold selectivity (IC50), PKC δ = 1",protein kinase C ε [20],489 fold
same,"Fold selectivity (IC50), PKC δ = 1",protein kinase C η [21],683 fold
same,"Fold selectivity (IC50), PKC δ = 1",protein kinase C θ [22],761 fold
same,"Fold selectivity (IC50), PKC δ = 1",[23],26 fold
same,"Fold selectivity (IC50), PKC δ = 1",protein kinase C ζ [24],200 fold
same,"Fold selectivity (IC50), PKC δ = 1",protein kinase Cα [25],944 fold
same,"Fold selectivity (IC50), PKC δ = 1",protein kinase C βI [26],172 fold
B6,"IC50, PKCα-catalysed phosphorylation of peptide substrate (33P assay)",protein kinase Cα [9],4.7 µM
same,Ki,protein kinase Cα [10],0.55 µM
B7,"IC50, PKC kinase assay",protein kinase C ζ [6],80 µM
B8,"IC50, PKC ζ kinase assay",protein kinase C ζ [6],0.85 µM
same,IC50 relative to the diacetylated parent peptide A,protein kinase C ζ [6],~100 fold
